No end group written: not given here.
Tests used:
[1] = target: T1, human Fes SH2-kinase unit (residues I448 to the C terminus), unphosphorylated (human, UniProt P07332-1 448-822); experiment: crystal structure; sitting drops; Fes SH2-kinase with staurosporine (1 mM) and peptide Ac-IYESL (250-300 uM); form II from 20% PEG 3350, 0.1 M sodium malate; form III from 30% mPEG 2000, 0.15 M NaBr; conditions: both partners purified
T1 construct: Fes tyrosine kinase, human, NP_001996; linker N terminal to the SH2 domain, SH2 domain and C-terminal kinase domain; residues I448 to the C terminus; Crystallised with staurosporine; also called SH2-kinase polypeptide; unphosphorylated Fes; source: E. coli BL21(DE3)-R3, coexpressed with YopH tyrosine phosphatase, purified
T1 sequence (P07332 448-822): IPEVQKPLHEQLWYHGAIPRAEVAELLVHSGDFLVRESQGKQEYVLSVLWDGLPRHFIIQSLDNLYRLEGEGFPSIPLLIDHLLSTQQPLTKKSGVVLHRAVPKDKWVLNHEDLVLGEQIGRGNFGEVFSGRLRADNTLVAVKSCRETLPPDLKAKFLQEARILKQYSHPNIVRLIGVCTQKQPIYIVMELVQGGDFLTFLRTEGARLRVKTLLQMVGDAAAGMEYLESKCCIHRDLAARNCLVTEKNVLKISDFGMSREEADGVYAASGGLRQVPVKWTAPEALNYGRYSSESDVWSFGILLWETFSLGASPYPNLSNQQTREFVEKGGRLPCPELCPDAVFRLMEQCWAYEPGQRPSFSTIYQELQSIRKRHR

[2] = target: T2, human Fes SH2-kinase unit (residues I448 to the C terminus), autophosphorylated on Y713 (human, UniProt P07332-1 448-822, phosphotyrosine at 713); experiment: as above; conditions: both partners purified
T2 construct: Fes tyrosine kinase, human, NP_001996; Crystallised with staurosporine; also called pY713-Fes; phosphorylated Fes; source: E. coli BL21(DE3)-R3, coexpressed with YopH, purified; autophosphorylated in vitro, purified by gel filtration
T2 sequence (P07332 448-822): as above

binding result [1]: binds | binding result [2]: binds
B1: Fes kinase consensus substrate peptide Ac-IYESL (peptide)
peptide: Ac-IYESL
notes: consensus substrate peptide of the Fes kinase, derived from peptide library and array screens; also called consensus peptide; source: synthetic peptide

Reference: paper PMC2572732, “Structural Coupling of SH2-Kinase Domains Links Fes and Abl Substrate Recognition and Kinase Activation” (Cell, 2008)
